Experimental data reported in patent US20220143136A1, “USE OF ANNEXINS IN PREVENTING AND TREATING MUSCLE MEMBRANE INJURY” (NORTHWESTERN UNIVERSITY, priority 2018, published 2022).

Columns and labels:
[1] = tested on: Duchenne muscular dystrophy boys; conditions: orally, 100 mg/kg; cited from earlier work
[2] = tested on: rat model of myocardial ischemia-reperfusion-induced injury; conditions: La et al., FASEB J. 2001; cited from earlier work
[3] = tested on: myofibers; test: Annexin repair cap formation after laser injury at multiple Ca2+ concentrations; type: cell-based, mouse
Method: (§1) Electroporation, myofiber isolation, laser injury, cap and vesicle measurement. Flexor digitorum brevis (FDB) fibers were transfected with endo-free plasmid DNA by in vivo electroporation. Methods were described previously in (Demonbreun and McNally, 2015; Demonbreun et al., 2016b; DiFranco et al., 2009). Z-stack projections were acquired from consecutive acquisitions after the final time-lapse frame, approximately 4 minutes post damage, with a […] step size between slices. Z-stack renderings were constructed in FIJI. Measurement of the cap area and feret diameter were conducted from a single slice near the middle of the z-stack using FIJI imaging tools. Fibers expressing similar levels of tagged or GCaMP5G protein were compared. GCaMP5G Ca^2+ fluorescence was measured from the acquired timelapse images, using a standard rectangular ROI, placed inside the myofiber below the site of damage using FIJI. Fluorescence was expressed as F/F0. External vesicle number and GCaMP5G area were measured from endpoint z-stacks and max projection images using FIJI. Vesicles were considered external if they were found outside the sarcolemma assessed in brightfield and fluorescent channels. All measurements were acquired from myofibers isolated from at least n≥3 mice, n≥3 myofibers per mouse.
Calcium kinetics. FDB muscle was electroporated and isolated as described above. Myofibers were damaged in Ringers solution with Ca^2+ concentrations of 2 mM, 1 mM, 0.5 mM, 0.25 mM, 0.175 mM, 0.1 mM, 0.050 mM, and 0 mM. EDTA was added as a Ca^2+ chelating agent in only in the 0 mM Ca^2+ Ringers. Myofibers were isolated directly into 2 mM, 1 mM and 0.5 mM Ringers for those experiments respectively. For experiments using less than 0.5 mM Ca^2+ myofibers were isolated in 0.5 mM Ca^2+ Ringers and then diluted with 0 mM EDTA-free Ca^2+ Ringers. For 0 mM experiments, myofibers were isolated in 0.5 mM Ca^2+ Ringers and then replaced with 0 mM Ca^2++EDTA Ringers just prior to imaging. Co-electroporation of wildtype annexin+wildtype annexin constructs was performed in one mouse foot, while the contralateral foot was co-electroporated with wildtype annexin+mutant annexin. All measurements were acquired from myofibers isolated from at least n≥2 mice, n≥3 myofibers per mouse at each Ca^2+ concentration. Area-Ca^2+ curves were fitted with a Hill Curve at Ca^2+ concentrations ranging from 0-2 mM. Kinetic parameters were calculated using Prism Graphpad.
as §1, with “(Demonbreun A R, Quattrocelli M, Barefield D Y, Allen M V, Swanson K E,” for “(Demonbreun”, “McNally E M. An actin-dependent annexin complex mediates plasma membrane repair in muscle. The Journal of cell biology. 2016; 213(6):705-18; Demonbreun A R, and McNally E M. DNA Electroporation, Isolation and Imaging of Myofibers. Journal of visualized experiments: JoVE.” for “McNally,”, “106(106):e53551;” for “Demonbreun et al., 2016b;”, “M, Quinonez M, Capote J, and Vergara J. DNA transfection of mammalian skeletal muscles using in vivo electroporation. Journal of visualized experiments: JoVE. 2009; 32(32)).” for “et al., 2009).”, “Vesicles were considered external if they were found outside the sarcolemma assessed in brightfield and fluorescent channels. All measurements were acquired from myofibers isolated from at least n≥3 mice, n≥3 myofibers per mouse.” left out

[4] = tested on: wildtype myofibers; test: Laser-induced membrane injury, FM 4-64 dye uptake; type: cell-based, mouse; conditions: mutant A6E233A-GFP vs wildtype annexin A6-GFP expressing myofibers
[5] = tested on: wildtype myofibers; test: Laser injury FM 4-64 uptake, E coli versus HEK cell produced rANXA6; type: cell-based, mouse; conditions: 13 μg/ml and 130 μg/ml; for FM 4-64 dye uptake after laser injury: vs BSA control
Method: Myofiber isolation, laser injury, and dye measurement. For recombinant myofibers studies, myofibers were isolated from wildtype mice. Myofibers were incubated in Ringer's media with 13 μg/ml or 130 μg/ml human recombinant annexin, E coli or HEK cell produced. Bovine serum albumin (BSA) was used as a negative control. FM 4-64 ([…]) was added to the myofibers just prior to imaging. Fibers were subjected to laser-induced damage at room temperature using the Nikon A1R-MP multiphoton microscope. Imaging was performed using a 25×1.1 NA objective directed by the NIS-Elements AR imaging software. FM 4-64 was excited using a 920 nm wavelength laser and emission wavelengths of 575 nm and 629 nm were collected, respectively. To induce laser damage on isolated myofibers, a diffraction limited spot (diameter approximately 410 nm) was created on the lateral membrane of the myofiber using a 920 nm wavelength laser at 10-15% laser power for 1 second. FM 4-64 area was measured using FIJI from a single slice near the middle of the z-stack. Myofiber quality control was based on a number of characteristics including using adherent myofibers with intact sarcomere structure. Myofibers appeared devoid of tears or ruptures induced during the isolation protocol. The region of the myofiber selected for damage was linear and not located on a nucleus or neuromuscular junction.
Statistical analyses were performed with Prism (Graphpad, La Jolla, Calif.). Comparisons relied on ANOVA (1way ANOVA for 1 variable). P-values of less than or equal to 0.05 were considered significant. Error bars represent +/−standard error of the mean (SEM).

CC/C=C\C/C=C\C/C=C\C/C=C\C/C=C\C/C=C\CCC(=O)NCCNC(=O)c1ccccc1O [Edasalonexent]
muscle disease progression [1]: delayed muscle disease progression

AC2-26: N-terminal annexin A1 peptide (AMVSEFLKQAWFIENEEQEYVQTVK; UniProt P04083 2-26, looked up, fragment) [reference compound]
cardioprotection [2]: cardioprotective response

B1: annexin A6E233A: Ca2+-binding mutant of annexin A6 (E233A), plasmid expressed, dominant negative (protein, UniProt P14824 2-673, looked up, variant E233A)
Annexin A6: AKIAQGAMYRGSVHDFPEFDANQDAEALYTAMKGFGSDKESILELITSRSNKQRQEICQNYKSLYGKDLIEDLKYELTGKFERLIVNLMRPLAYCDAKEIKDAISGVGTDEKCLIEILASRTNEQMHQLVAAYKDAYERDLESDIIGDTSGHFQKMLVVLLQGTRENDDVVSEDLVQQDVQDLYEAGELKWGTDEAQFIYILGNRSKQHLRLVFDEYLKTTGKPIEASIRGALSGDFEKLMLAVVKCIRSTPEYFAERLFKAMKGLGTRDNTLIRIMVSRSELDMLDIREIFRTKYEKSLYSMIKNDTSGEYKKALLKLCGGDDDAAGQFFPEAAQVAYQMWELSAVSRVELKGTVCAANDFNPDADAKALRKAMKGIGTDEATIIDIVTHRSNAQRQQIRQTFKSHFGRDLMADLKSEISGDLARLILGLMMPPAHYDAKQLKKAMEGAGTDEKTLIEILATRTNAEIRAINEAYKEDYHKSLEDALSSDTSGHFRRILISLATGNREEGGENRDQAQEDAQVAAEILEIADTPSGDKTSLETRFMTVLCTRSYPHLRRVFQEFIKKTNYDIEHVIKKEMSGDVKDAFVAIVQSVKNKPLFFADKLYKSMKGAGTDEKTLTRVMVSRSEIDLLNIRREFIEKYDKSLHQAIEGDTSGDFMKALLALCGGED
modifications: GFP tag
annexin A1, A2 and A6 cap size with co-expressed mutant annexin A6 ([3]; compared to A1+A6, A2+A6, A6+A6 controls (heterotypic)): significant reduction | repair cap diameter (DMAX) / cap size of the co-expressed wildtype annexin of the same type ([3]; wildtype+mutant vs wildtype+wildtype co-electroporation (homotypic)): significantly reduced | FM 4-64 fluorescence area after laser injury [4]: increased

B2: E coli produced rANXA6: human recombinant annexin A6 produced in E coli, from R&D Systems or CRO Evotec SE (protein, UniProt P08133 2-673, looked up)
Annexin A6: AKPAQGAKYRGSIHDFPGFDPNQDAEALYTAMKGFGSDKEAILDIITSRSNRQRQEVCQSYKSLYGKDLIADLKYELTGKFERLIVGLMRPPAYCDAKEIKDAISGIGTDEKCLIEILASRTNEQMHQLVAAYKDAYERDLEADIIGDTSGHFQKMLVVLLQGTREEDDVVSEDLVQQDVQDLYEAGELKWGTDEAQFIYILGNRSKQHLRLVFDEYLKTTGKPIEASIRGELSGDFEKLMLAVVKCIRSTPEYFAERLFKAMKGLGTRDNTLIRIMVSRSELDMLDIREIFRTKYEKSLYSMIKNDTSGEYKKTLLKLSGGDDDAAGQFFPEAAQVAYQMWELSAVARVELKGTVRPANDFNPDADAKALRKAMKGLGTDEDTIIDIITHRSNVQRQQIRQTFKSHFGRDLMTDLKSEISGDLARLILGLMMPPAHYDAKQLKKAMEGAGTDEKALIEILATRTNAEIRAINEAYKEDYHKSLEDALSSDTSGHFRRILISLATGHREEGGENLDQAREDAQVAAEILEIADTPSGDKTSLETRFMTILCTRSYPHLRRVFQEFIKMTNYDVEHTIKKEMSGDVRDAFVAIVQSVKNKPLFFADKLYKSMKGAGTDEKTLTRIMVSRSEIDLLNIRREFIEKYDKSLHQAIEGDTSGDFLKALLALCGGED
modifications: E. coli produced
notes: human recombinant annexin A6 produced in E coli, from R&D Systems or CRO Evotec SE
effect on membrane repair, E coli produced compared to mammalian cell produced protein [5]: not significantly different | effect on membrane repair, E coli produced compared to mammalian cell produced protein ([5]; listed as annexin A6 protein produced in prokaryotic cells): performed as well as | FM 4-64 dye uptake after laser injury [5]: significantly less

B3: mammalian HEK cell produced rANXA6: human recombinant annexin A6 produced in mammalian HEK cells (protein, UniProt P08133 2-673, looked up)
Annexin A6: AKPAQGAKYRGSIHDFPGFDPNQDAEALYTAMKGFGSDKEAILDIITSRSNRQRQEVCQSYKSLYGKDLIADLKYELTGKFERLIVGLMRPPAYCDAKEIKDAISGIGTDEKCLIEILASRTNEQMHQLVAAYKDAYERDLEADIIGDTSGHFQKMLVVLLQGTREEDDVVSEDLVQQDVQDLYEAGELKWGTDEAQFIYILGNRSKQHLRLVFDEYLKTTGKPIEASIRGELSGDFEKLMLAVVKCIRSTPEYFAERLFKAMKGLGTRDNTLIRIMVSRSELDMLDIREIFRTKYEKSLYSMIKNDTSGEYKKTLLKLSGGDDDAAGQFFPEAAQVAYQMWELSAVARVELKGTVRPANDFNPDADAKALRKAMKGLGTDEDTIIDIITHRSNVQRQQIRQTFKSHFGRDLMTDLKSEISGDLARLILGLMMPPAHYDAKQLKKAMEGAGTDEKALIEILATRTNAEIRAINEAYKEDYHKSLEDALSSDTSGHFRRILISLATGHREEGGENLDQAREDAQVAAEILEIADTPSGDKTSLETRFMTILCTRSYPHLRRVFQEFIKMTNYDVEHTIKKEMSGDVRDAFVAIVQSVKNKPLFFADKLYKSMKGAGTDEKTLTRIMVSRSEIDLLNIRREFIEKYDKSLHQAIEGDTSGDFLKALLALCGGED
FM 4-64 dye uptake after laser injury [5]: significantly less

B4: recombinant annexin A1: recombinant annexin A1 protein (literature) (protein, UniProt P04083 2-346, looked up)
Annexin A1: AMVSEFLKQAWFIENEEQEYVQTVKSSKGGPGSAVSPYPTFNPSSDVAALHKAIMVKGVDEATIIDILTKRNNAQRQQIKAAYLQETGKPLDETLKKALTGHLEEVVLALLKTPAQFDADELRAAMKGLGTDEDTLIEILASRTNKEIRDINRVYREELKRDLAKDITSDTSGDFRNALLSLAKGDRSEDFGVNEDLADSDARALYEAGERRKGTDVNVFNTILTTRSYPQLRRVFQKYTKYSKHDMNKVLDLELKGDIEKCLTAIVKCATSKPAFFAEKLHQAMKGVGTRHKALIRIMVSRSEIDMNDIKAFYQKMYGISLCQAILDETKGDYEKILVALCGGN
cardioprotection [2]: cardioprotective response
